The values that follow come from publication PMC7948499, “The molecular basis of the nonprocessive elongation mechanism in levansucrases” (The Journal of Biological Chemistry, 2020).

First the molecules themselves.
B1: SacB (Bacillus subtilis levansucrase, LS) (Bacillus subtilis subsp. subtilis str. 168) (protein)
chain: KETNQKPYKETYGISHITRHDMLQIPEQQKNEKYQVPEFDSSTIKNISSAKGLDVWDSWPLQNADGTVANYHGYHIVFALAGDPKNADDTSIYMFYQKVGETSIDSWKNAGRVFKDSDKFDANDSILKDQTQEWSGSATFTSDGKIRLFYTDFSGKHYGKQTLTTAQVNVSASDSSLNINGVEDYKSIFDGDGKTYQNVQQFIDEGNYSSGDNHTLRDPHYVEDKGHKYLVFEANTGTEDGYQGEESLFNKAYYGKSTSFFRQESQKLLQSDKKRTAELANGALGMIELNDDYTLKKVMKPLIASNTVTDEIERANVFKMNGKWYLFTDSRGSKMTIDGITSNDIYMLGYVSNSLTGPYKPLNKTGLVLKMDLDPNDVTFTYSHFAVPQAKGNNVVITSYMTNRGFYADKQSTFAPSFLLNIKGKKTSVVKDSILEQGQLTVNK
notes: sacB gene of strain 168 in pET22b, expressed in E. coli BL21(DE3); residues 32-471 modelled in crystal
B2: SacB (Bacillus subtilis levansucrase, LS) (Bacillus subtilis subsp. subtilis str. 168; N242A) (protein)
chain: KETNQKPYKETYGISHITRHDMLQIPEQQKNEKYQVPEFDSSTIKNISSAKGLDVWDSWPLQNADGTVANYHGYHIVFALAGDPKNADDTSIYMFYQKVGETSIDSWKNAGRVFKDSDKFDANDSILKDQTQEWSGSATFTSDGKIRLFYTDFSGKHYGKQTLTTAQVNVSASDSSLNINGVEDYKSIFDGDGKTYQNVQQFIDEGNYSSGDAHTLRDPHYVEDKGHKYLVFEANTGTEDGYQGEESLFNKAYYGKSTSFFRQESQKLLQSDKKRTAELANGALGMIELNDDYTLKKVMKPLIASNTVTDEIERANVFKMNGKWYLFTDSRGSKMTIDGITSNDIYMLGYVSNSLTGPYKPLNKTGLVLKMDLDPNDVTFTYSHFAVPQAKGNNVVITSYMTNRGFYADKQSTFAPSFLLNIKGKKTSVVKDSILEQGQLTVNK
notes: as for B1
B3: SacB (Bacillus subtilis levansucrase, LS) (Bacillus subtilis subsp. subtilis str. 168; F182A) (protein)
chain: KETNQKPYKETYGISHITRHDMLQIPEQQKNEKYQVPEFDSSTIKNISSAKGLDVWDSWPLQNADGTVANYHGYHIVFALAGDPKNADDTSIYMFYQKVGETSIDSWKNAGRVFKDSDKFDANDSILKDQTQEWSGSATFTSDGKIRLFYTDASGKHYGKQTLTTAQVNVSASDSSLNINGVEDYKSIFDGDGKTYQNVQQFIDEGNYSSGDNHTLRDPHYVEDKGHKYLVFEANTGTEDGYQGEESLFNKAYYGKSTSFFRQESQKLLQSDKKRTAELANGALGMIELNDDYTLKKVMKPLIASNTVTDEIERANVFKMNGKWYLFTDSRGSKMTIDGITSNDIYMLGYVSNSLTGPYKPLNKTGLVLKMDLDPNDVTFTYSHFAVPQAKGNNVVITSYMTNRGFYADKQSTFAPSFLLNIKGKKTSVVKDSILEQGQLTVNK
notes: as for B1
B4: SacB (Bacillus subtilis levansucrase, LS) (Bacillus subtilis subsp. subtilis str. 168; Y237A) (protein)
chain: KETNQKPYKETYGISHITRHDMLQIPEQQKNEKYQVPEFDSSTIKNISSAKGLDVWDSWPLQNADGTVANYHGYHIVFALAGDPKNADDTSIYMFYQKVGETSIDSWKNAGRVFKDSDKFDANDSILKDQTQEWSGSATFTSDGKIRLFYTDFSGKHYGKQTLTTAQVNVSASDSSLNINGVEDYKSIFDGDGKTYQNVQQFIDEGNASSGDNHTLRDPHYVEDKGHKYLVFEANTGTEDGYQGEESLFNKAYYGKSTSFFRQESQKLLQSDKKRTAELANGALGMIELNDDYTLKKVMKPLIASNTVTDEIERANVFKMNGKWYLFTDSRGSKMTIDGITSNDIYMLGYVSNSLTGPYKPLNKTGLVLKMDLDPNDVTFTYSHFAVPQAKGNNVVITSYMTNRGFYADKQSTFAPSFLLNIKGKKTSVVKDSILEQGQLTVNK
notes: as for B1
B5: SacB (Bacillus subtilis levansucrase, LS) (Bacillus subtilis subsp. subtilis str. 168; K363A) (protein)
chain: KETNQKPYKETYGISHITRHDMLQIPEQQKNEKYQVPEFDSSTIKNISSAKGLDVWDSWPLQNADGTVANYHGYHIVFALAGDPKNADDTSIYMFYQKVGETSIDSWKNAGRVFKDSDKFDANDSILKDQTQEWSGSATFTSDGKIRLFYTDFSGKHYGKQTLTTAQVNVSASDSSLNINGVEDYKSIFDGDGKTYQNVQQFIDEGNYSSGDNHTLRDPHYVEDKGHKYLVFEANTGTEDGYQGEESLFNKAYYGKSTSFFRQESQKLLQSDKKRTAELANGALGMIELNDDYTLKKVMKPLIASNTVTDEIERANVFKMNGKWYLFTDSRGSAMTIDGITSNDIYMLGYVSNSLTGPYKPLNKTGLVLKMDLDPNDVTFTYSHFAVPQAKGNNVVITSYMTNRGFYADKQSTFAPSFLLNIKGKKTSVVKDSILEQGQLTVNK
notes: as for B1
B6: SacB (Bacillus subtilis levansucrase, LS) (Bacillus subtilis subsp. subtilis str. 168; F182W) (protein)
chain: KETNQKPYKETYGISHITRHDMLQIPEQQKNEKYQVPEFDSSTIKNISSAKGLDVWDSWPLQNADGTVANYHGYHIVFALAGDPKNADDTSIYMFYQKVGETSIDSWKNAGRVFKDSDKFDANDSILKDQTQEWSGSATFTSDGKIRLFYTDWSGKHYGKQTLTTAQVNVSASDSSLNINGVEDYKSIFDGDGKTYQNVQQFIDEGNYSSGDNHTLRDPHYVEDKGHKYLVFEANTGTEDGYQGEESLFNKAYYGKSTSFFRQESQKLLQSDKKRTAELANGALGMIELNDDYTLKKVMKPLIASNTVTDEIERANVFKMNGKWYLFTDSRGSKMTIDGITSNDIYMLGYVSNSLTGPYKPLNKTGLVLKMDLDPNDVTFTYSHFAVPQAKGNNVVITSYMTNRGFYADKQSTFAPSFLLNIKGKKTSVVKDSILEQGQLTVNK
notes: as for B1
B7: SacB (Bacillus subtilis levansucrase, LS) (Bacillus subtilis subsp. subtilis str. 168; D117A) (protein)
chain: KETNQKPYKETYGISHITRHDMLQIPEQQKNEKYQVPEFDSSTIKNISSAKGLDVWDSWPLQNADGTVANYHGYHIVFALAGDPKNAADTSIYMFYQKVGETSIDSWKNAGRVFKDSDKFDANDSILKDQTQEWSGSATFTSDGKIRLFYTDFSGKHYGKQTLTTAQVNVSASDSSLNINGVEDYKSIFDGDGKTYQNVQQFIDEGNYSSGDNHTLRDPHYVEDKGHKYLVFEANTGTEDGYQGEESLFNKAYYGKSTSFFRQESQKLLQSDKKRTAELANGALGMIELNDDYTLKKVMKPLIASNTVTDEIERANVFKMNGKWYLFTDSRGSKMTIDGITSNDIYMLGYVSNSLTGPYKPLNKTGLVLKMDLDPNDVTFTYSHFAVPQAKGNNVVITSYMTNRGFYADKQSTFAPSFLLNIKGKKTSVVKDSILEQGQLTVNK
notes: as for B1
B8: SacB (Bacillus subtilis levansucrase, LS) (Bacillus subtilis subsp. subtilis str. 168; F182Y) (protein)
chain: KETNQKPYKETYGISHITRHDMLQIPEQQKNEKYQVPEFDSSTIKNISSAKGLDVWDSWPLQNADGTVANYHGYHIVFALAGDPKNADDTSIYMFYQKVGETSIDSWKNAGRVFKDSDKFDANDSILKDQTQEWSGSATFTSDGKIRLFYTDYSGKHYGKQTLTTAQVNVSASDSSLNINGVEDYKSIFDGDGKTYQNVQQFIDEGNYSSGDNHTLRDPHYVEDKGHKYLVFEANTGTEDGYQGEESLFNKAYYGKSTSFFRQESQKLLQSDKKRTAELANGALGMIELNDDYTLKKVMKPLIASNTVTDEIERANVFKMNGKWYLFTDSRGSKMTIDGITSNDIYMLGYVSNSLTGPYKPLNKTGLVLKMDLDPNDVTFTYSHFAVPQAKGNNVVITSYMTNRGFYADKQSTFAPSFLLNIKGKKTSVVKDSILEQGQLTVNK
notes: as for B1
B9: SacB (Bacillus subtilis levansucrase, LS) (Bacillus subtilis subsp. subtilis str. 168; Y187A) (protein)
chain: KETNQKPYKETYGISHITRHDMLQIPEQQKNEKYQVPEFDSSTIKNISSAKGLDVWDSWPLQNADGTVANYHGYHIVFALAGDPKNADDTSIYMFYQKVGETSIDSWKNAGRVFKDSDKFDANDSILKDQTQEWSGSATFTSDGKIRLFYTDFSGKHAGKQTLTTAQVNVSASDSSLNINGVEDYKSIFDGDGKTYQNVQQFIDEGNYSSGDNHTLRDPHYVEDKGHKYLVFEANTGTEDGYQGEESLFNKAYYGKSTSFFRQESQKLLQSDKKRTAELANGALGMIELNDDYTLKKVMKPLIASNTVTDEIERANVFKMNGKWYLFTDSRGSKMTIDGITSNDIYMLGYVSNSLTGPYKPLNKTGLVLKMDLDPNDVTFTYSHFAVPQAKGNNVVITSYMTNRGFYADKQSTFAPSFLLNIKGKKTSVVKDSILEQGQLTVNK
notes: as for B1

The first series concerns the target T1, SacB (Bacillus subtilis levansucrase, LS) (Bacillus subtilis, UniProt P05655, D86A/E342A).
T1 construct: sacB gene of strain 168 in pET22b, expressed in E. coli BL21(DE3); residues 32-471 modelled in crystal
T1 sequence (P05655 30-473 D86A/E342A): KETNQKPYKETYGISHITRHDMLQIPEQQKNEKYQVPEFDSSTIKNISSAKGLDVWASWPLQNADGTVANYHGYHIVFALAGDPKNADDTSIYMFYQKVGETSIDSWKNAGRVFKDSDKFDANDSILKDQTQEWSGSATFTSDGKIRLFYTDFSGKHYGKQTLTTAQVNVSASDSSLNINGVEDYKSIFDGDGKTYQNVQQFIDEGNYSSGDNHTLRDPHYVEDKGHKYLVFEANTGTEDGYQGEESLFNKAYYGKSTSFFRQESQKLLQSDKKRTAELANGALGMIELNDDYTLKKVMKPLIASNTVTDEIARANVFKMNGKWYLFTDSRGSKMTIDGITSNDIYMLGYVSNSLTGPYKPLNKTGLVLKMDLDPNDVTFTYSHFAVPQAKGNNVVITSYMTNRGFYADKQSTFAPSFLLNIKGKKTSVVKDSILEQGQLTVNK
Description: X-ray crystal structure, […] Å, cocrystallization. The format is binding. The note with it: catalytically inactive mutant; pH 6.0, 18 °C; active site (OB1, six fructose units modelled as levanhexaose); second site OB2 about 20 Å away (levanhexaose in chain A, levanbiose in chain B).
With `OC[C@H]1O[C@@](CO)(OC[C@H]2O[C@@](CO)(OC[C@H]3O[C@@](CO)(OC[C@H]4O[C@@](CO)(OC[C@H]5O[C@@](CO)(OC[C@H]6O[C@@](CO)(OC[C@H]7O[C@@](CO)(O[C@H]8O[C@H](CO)[C@@H](O)[C@H](O)[C@H]8O)[C@@H](O)[C@@H]7O)[C@@H](O)[C@@H]6O)[C@@H](O)[C@@H]5O)[C@@H](O)[C@@H]4O)[C@@H](O)[C@@H]3O)[C@@H](O)[C@@H]2O)[C@@H](O)[C@@H]1O` [6,6,6,6,6,6-kestooctaose], the “X-ray crystal structure, 2.05 Å, cocrystallization” value was “inactive double mutant of SacB (D86A/E342A) cocrystallized in the presence of a levan-type FOS”.

Substrate in another series: OC[C@H]1O[C@@](CO)(O[C@H]2O[C@H](CO)[C@@H](O)[C@H](O)[C@H]2O)[C@@H](O)[C@@H]1O
Description: initial rates, reducing sugar release by dinitrosalicylic acid. Format: biochemical, Bacillus subtilis. The note with it: 50 mM acetate pH 6.0, 0-300 mM sucrose, 1 mM CaCl2 in enzyme buffer.
As to B1, the Km is recorded as 9 mM and the kcat turned out to be 236.7 s⁻¹. With B2, the Km was found to be 19.9 mM. For B3, the Km was 14.5 mM. Take B4: the Km is 10.6 (1.7) mM and the kcat is 256.3 (9.3) s^-1.

Substrate in the next series: OC[C@H]1O[C@@](CO)(O[C@H]2O[C@H](CO)[C@@H](O)[C@H](O)[C@H]2O)[C@@H](O)[C@@H]1O
Described as above. The format is biochemical, Bacillus subtilis. The note with it: 50 mM acetate pH 6.0, 0-300 mM sucrose, 1 mM CaCl2 in enzyme buffer. This is another data set of the same source. The method, then:
initial rates, reducing sugar release by dinitrosalicylic acid on SacB (Bacillus subtilis levansucrase, LS) | were expressed and purified, and their kinetic parameters were determined (Fig. 4B)
As to B5, the Km is recorded as 10.5 (2.2) mM and the kcat was 95.4 (2.2) s^-1.

Take B6: the Km is reported as 10.5 (1.3) mM and the kcat was 129.4 (3.6) s^-1. Turning to B7, the Km was 13.2 (1.7) mM and the kcat is 171.2 (5.7) s^-1. In the same order, the values of B8 are 10.3 (0.7) mM and 162.2 (2.6) s^-1. Take B9: the Km is 8.4 (0.9) mM and the kcat is 199.2 (4.4) s^-1.
